The values that follow are results of earlier work, collected in publication PMC10024700.

Broadly, the Kd is a measure of binding affinity in units of concentration.

Data set [1] concerns the target Cadherin-23 EC1-2 (Mus musculus) (UniProt Q99PF4). As to the kind of experiment: AUC.
Data set [2] addresses Protocadherin-15 EC1-2 (Mus musculus) (UniProt Q99PJ1). The data set can be described thus: ITC.
The target is the same in data set [3]. As to the kind of experiment: SPR. In general terms: SPR reads the build-up and loss of mass on a sensor chip optically.

For Cadherin-23 EC1-2 (from UniProt Q99PF4), the Kd in data set [1] was 18000 nM; in data set [2], 2900 nM; in data set [3], 840 nM.
